The record followed here is patent US20230241072A1, “ANTHRACYCLINE DERIVATIVES” (ALMAC DISCOVERY LIMITED, priority 2019, published 2023).

In the assay the target is ROR1 on the surface of human cancer cells (human) (UniProt Q01973). The assay is described as follows: cell-based or functional assay.

B1: P3A1hFc-PEG4-vc-PAB-EDA-PNU (Fc fusion, not shown: a dimerising Fc or GST)
chain: TRVDQTPRTATKETGESLTINCVLTDTSYGLYSTSWFRKNPGTTDWERMSIGGRYVESVNKGAKSFSLRIKDLTVADSATYYCKAREARHPWLRQWYDGAGTVLTVNGGGGSGGGGSGGGGS
modifications: MA-PEG4-vc-PAB-EDA-PNU159682 on Cys 239 (EU) of the Fc
For B1, the IC50 (nM) 96 h, cell viability (Cell Titre Glo), 697 cells came to 52 nM; the IC50 (nM) 96 h, cell viability (Cell Titre Glo), Kasumi-2 cells worked out at 3.2 nM; the IC50 (nM) 96 h, cell viability (Cell Titre Glo), MHH-ES1 cells is 24 nM; the IC50 (nM) 96 h, cell viability (Cell Titre Glo), PA-1 cells is 0.1 nM. Also, the ROR1 targeting/2V non-targeting window, 697 cells amounted to 1.2 fold; the ROR1 targeting/2V non-targeting window, Kasumi-2 cells is 18 fold; the ROR1 targeting/2V non-targeting window, MHH-ES1 cells came out at 1.1 fold; the ROR1 targeting/2V non-targeting window, PA-1 cells worked out at 73 fold.

B2: P3A1hFc-PEG4-va-EDA-PNU (Fc fusion, not shown: a dimerising Fc or GST)
chain: B1 chain
modifications: MA-PEG4-va-EDA-PNU159682 on Cys 239 (EU) of the Fc
For the molecule B2, the IC50 (nM) 96 h, cell viability (Cell Titre Glo), 697 cells came out at 61 nM; the IC50 (nM) 96 h, cell viability (Cell Titre Glo), Kasumi-2 cells stood at 2.3 nM; the IC50 (nM) 96 h, cell viability (Cell Titre Glo), MHH-ES1 cells was found to be 18 nM; the IC50 (nM) 96 h, cell viability (Cell Titre Glo), PA-1 cells is 0.15 nM. The molecule further returned an ROR1 targeting/2V non-targeting window, 697 cells of 4 fold; an ROR1 targeting/2V non-targeting window, Kasumi-2 cells of 43 fold; an ROR1 targeting/2V non-targeting window, MHH-ES1 cells of 8.4 fold; an ROR1 targeting/2V non-targeting window, PA-1 cells of 360 fold.

B3: P3A1hFc(442)-PEG4-va-EDA-PNU (Fc fusion, not shown: a dimerising Fc or GST)
chain: B1 chain
modifications: MA-PEG4-va-EDA-PNU159682 on Cys 442 (EU) of the Fc
For the molecule B3, the IC50 (nM) 96 h, cell viability (Cell Titre Glo), Kasumi-2 cells was determined as 9.1 nM; the IC50 (nM) 96 h, cell viability (Cell Titre Glo), MHH-ES1 cells was 37.5 nM; the IC50 (nM) 96 h, cell viability (Cell Titre Glo), PA-1 cells was found to be 0.025 nM.
